The data set “SEC” concerns the molecule itself. Put plainly: SEC.
Substrate in the data set “purified protein”: CC(C)=CCC/C(C)=C/CC/C(C)=C/CC/C(C)=C/COP(=O)(O)OP(=O)(O)O
Put plainly: purified protein. Type of data set: biochemical, Streptomyces sp. As to conditions: 10 mM MgCl2, 30 °C, GGDP 10-200 μM.

B1: DtcycB (enzyme, Streptomyces sp. SANK 60404, UniProt M1VDX3 1-343, looked up)
chain: MDLPPALLSFYCPIASEVSPEHEAVAQEMYAWIHAMSLTSDNRQAKMLAQAGAGFNSYFTPRARGELARALSKYNVCAWIANGMVQEIRDPGTFGAMAARWARIMEEPATCPADGIPMDFALADAFSHIRRTLSPVKWQHFSAAQSHWMHGLAWENCLHQVKGLTVHDYLSFRYVMSGCFAAAAFAYAVPERHPSAEEWAHPKVRAAADAAMMVDALDNDRYSYLKESLTEADKKTIFAALRHENPALGREEVIVRGVQLRDRILTLYLTLRGELLCDASEGLRSYLTGLDLIIAGNLVFCADMGLRYGLPEGSVRTDAEPLDRTVAPPGIGAIDHWWAQAGA
In the case of B1, the “stoichiometry N” value in “SEC” was found to be 2. Also, in the data set “purified protein”, the Km was found to be 42.1 ± 7.3 µM and the turnover number (kcat) was 0.0217 s⁻¹.

B2: DtcycA (enzyme, Streptomyces sp. SANK 60404, UniProt M1V9Q0 1-371, looked up)
chain: MTDPAVTPLAFSIPQLYCPFPTAIHPEVDTLTRAGMDFMTHHGFCNTEADRLVVANIDAGAIVARWYPNPDFPVDRLQMVTDFLYLYFLIDDLRFEVINSDTGLAGPIALFAQHLDLWEYPQAHRREELDLFHQAIHDLASRMAELTTPTKAARMRRSINGWFLALLREIALFNDDHAVMAEEYLPIRVVTVASRLMIDVNGFICPAEVPGDEWYSLKVQAAAEAAMSVCLYDNELYSAGKEQWLKSRATAHDRRPRNLVALIQAQTGGSTEHALQEVAEYRNRTVCLYLNLRSQLEKTASPALLAYLSVLDGVISGNLDAHATSSRYHNPDGHHPHAIAFTPLRTTDECSARAHTPIAPPIAWWWEQLDQ
B2: the “stoichiometry N” value in “SEC” amounted to 2. Also, in the data set “purified protein”, the Km is 93.7 ± 8.4 µM and the kcat stood at 0.0467 s⁻¹.

These data come from publication PMC3790952 (Chembiochem, 2013).
